From the supplement of paper PMC9170038

Tested on: MS2 coat protein
Test: apparent KD of MS2 coat protein; designed switch direction (-1 OFF switch, 1 ON switch): -1; higher = weaker reporter binding
Summary of the method: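 Stalled E. coli RNA polymerase transcribed designed RNA switches on Illumina chips, which were then titrated with SNAP-549-labelled MS2 coat protein, doubling from 0.7 or 1.5 nM to 3 µM. Steps lasted from 0.8–1.5 h at the lowest concentration to 10–20 min at the highest. The apparent KD is each design's median over clusters of curve-fitted normalised fluorescence.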

[1] = input ligand: microRNA oligo, concentration not stated
[2] = Eterna round: R95, input ligand: microRNA oligo, concentration not stated

Sequence | apparent KD of MS2 coat protein (input ligand: FMN 200 uM) | apparent KD of MS2 coat protein (input ligand: none) | apparent KD of MS2 coat protein [1] | apparent KD of MS2 coat protein (Eterna round: R95, input ligand: FMN 200 uM) | apparent KD of MS2 coat protein [2] | apparent KD of MS2 coat protein (Eterna round: R95, input ligand: none)
UACAAGCUUUUAAGAUCCUACAUGAGGAUCACCCAUGUGCUCGUCUUGUAACGUACUGUGACGAAAGUCACGGUACG [JL TOV1 3.22] (Eterna round: R97, puzzle: Sensor, turn-off variant 1) | 206 nM | 220 nM | – | – | – | –
GGCCUUCCGCGAGCUUUUUACAUGAGGAUCACCCAUGUGGUUUUUAGUCUUAUGCCCGGGCCCGUGUGGGCCCGGGC [-33.7, -54.7, A 12%] (Eterna round: R97, puzzle: Sensor, turn-off variant 1) | 27.6 nM | 29.2 nM | – | – | – | –
AUGGGUCCUCACGGAGCUACAUGAGGAUCACCCAUGUGGAUUGAGGAUAUCCACUGCCGACGGCUGGAGAAGGCAGUUUACUGU [Ex NG3 #94] (Eterna round: R96, puzzle: Exclusion NG 3) | 57.5 nM | 49.9 nM | 36 nM | – | – | –
AUUGGUUUGCGAGGAUAUGCUAAUAGUAAGUAUGCAGAAGGCGCGUUACAUAGAACCUCUAGUUACAUGAGGAUCACCCAUGUU [JR_ExcNG1_Sub038] (Eterna round: R96, puzzle: Exclusion NG 1) | – | – | 40.9 nM | – | – | –
CGCCGAGUGUUAGGAUAUUACAAGCAUAAGCGGUAAGAAGGAACAUGAGGAUCACCCAUGUACUGUCCCAUCGGGACAGGUUUC [Qule] (Eterna round: R96, puzzle: Exclusion NG 1) | 292 nM | 76.8 nM | 44.3 nM | – | – | –
AGUAACUAUCACGAAAGUGAUAGUUACAGCAAGUGAUAAACAUGAGGAUCACCCAUGUCCUCAUUUGCUCGUCUUAU [Sensor 3 - 12] (Eterna round: R96, puzzle: Sensor v3, turn-off variant 2) | 15 nM | 17.2 nM | 386 nM | – | – | –
AGUACUAACACGAAAGUGUUAGUACAAUAAGCUUGUGAAACAUGAGGAUCACCCAUGUCCUCAUAAGCUCGUCUUAA [salish99_TOv2_r3_002] (puzzle: Sensor v3, turn-off variant 2) | – | – | – | 12.9 nM | 379 nM | 10.8 nM
UUUAGUUCAGGAUAUGUAGAUUUUAACAUGAGGAUCACCCAUGUAGAUCCUGAAUUAACUACAGAAGGGAACAUUC [Exclusion 5: 2:c] (Eterna round: R96, puzzle: Exclusion 5) | 50.8 nM | 20.7 nM | 15.6 nM | – | – | –
UCCAGUAUAUGGAGAUUUUACAUGAGGAUCACCCAUGUUGGGACAGCUUUUUGCUUGUCUUAUCCUACUUCGUGUGU [Design #4] (Eterna round: R97, puzzle: Sensor, turn-off variant 1) | 51 nM | 56.3 nM | – | – | – | –
UUGCAGUCGUCAGGAUAUAGUAUUACGGCCUUUUAUUUCUUCAUACAUGAGGAUCACCCAUGUCGCUAGAAGGGAUUAUCGAUU [salish99_ExNG2_r04_105] (Eterna round: R96, puzzle: Exclusion NG 2) | 17.8 nM | 22.2 nM | 14.2 nM | – | – | –
GCCGAUUAAGUGAGGAUAUACCUAUGGAUACAUAGGUAGAAGGUACAUGAGGAUCACCCAUGUUCCUCAACGGC [Fiskers BMX 4 - 9] (puzzle: Brourd's mod of Exclusion 4) | – | – | – | – | 8.93 nM | –
UGUUGUCGCGCAGGAUAUGUAUGAGGAUCACCCAUAAGAGUAUAUUUACCAUGAGGAUCACCCAUGUAGAAGGGCGGGACAACA [pwkr exNG2 2xF5 1xFMN.11] (Eterna round: R96, puzzle: Exclusion NG 2) | 105 nM | 73.6 nM | 46.6 nM | – | – | –
UACGAACUAGGAUAUGCAAAGGGCUCGCUUUCCUUCGAUAAACUUGAGGAUCACCCAAGUAGAAGGAGUUUGUA [Mod 39 - Jieux - Exclusion 2] (Eterna round: R97, puzzle: Exclusion 2) | 30.2 nM | 11.4 nM | – | – | – | –
